From publication PMC2173330 (The Journal of Cell Biology, 2002)

Target: T1, XSMC1 (Xenopus (endogenous in egg extracts), UniProt O93308 1-1232)
T1 sequence: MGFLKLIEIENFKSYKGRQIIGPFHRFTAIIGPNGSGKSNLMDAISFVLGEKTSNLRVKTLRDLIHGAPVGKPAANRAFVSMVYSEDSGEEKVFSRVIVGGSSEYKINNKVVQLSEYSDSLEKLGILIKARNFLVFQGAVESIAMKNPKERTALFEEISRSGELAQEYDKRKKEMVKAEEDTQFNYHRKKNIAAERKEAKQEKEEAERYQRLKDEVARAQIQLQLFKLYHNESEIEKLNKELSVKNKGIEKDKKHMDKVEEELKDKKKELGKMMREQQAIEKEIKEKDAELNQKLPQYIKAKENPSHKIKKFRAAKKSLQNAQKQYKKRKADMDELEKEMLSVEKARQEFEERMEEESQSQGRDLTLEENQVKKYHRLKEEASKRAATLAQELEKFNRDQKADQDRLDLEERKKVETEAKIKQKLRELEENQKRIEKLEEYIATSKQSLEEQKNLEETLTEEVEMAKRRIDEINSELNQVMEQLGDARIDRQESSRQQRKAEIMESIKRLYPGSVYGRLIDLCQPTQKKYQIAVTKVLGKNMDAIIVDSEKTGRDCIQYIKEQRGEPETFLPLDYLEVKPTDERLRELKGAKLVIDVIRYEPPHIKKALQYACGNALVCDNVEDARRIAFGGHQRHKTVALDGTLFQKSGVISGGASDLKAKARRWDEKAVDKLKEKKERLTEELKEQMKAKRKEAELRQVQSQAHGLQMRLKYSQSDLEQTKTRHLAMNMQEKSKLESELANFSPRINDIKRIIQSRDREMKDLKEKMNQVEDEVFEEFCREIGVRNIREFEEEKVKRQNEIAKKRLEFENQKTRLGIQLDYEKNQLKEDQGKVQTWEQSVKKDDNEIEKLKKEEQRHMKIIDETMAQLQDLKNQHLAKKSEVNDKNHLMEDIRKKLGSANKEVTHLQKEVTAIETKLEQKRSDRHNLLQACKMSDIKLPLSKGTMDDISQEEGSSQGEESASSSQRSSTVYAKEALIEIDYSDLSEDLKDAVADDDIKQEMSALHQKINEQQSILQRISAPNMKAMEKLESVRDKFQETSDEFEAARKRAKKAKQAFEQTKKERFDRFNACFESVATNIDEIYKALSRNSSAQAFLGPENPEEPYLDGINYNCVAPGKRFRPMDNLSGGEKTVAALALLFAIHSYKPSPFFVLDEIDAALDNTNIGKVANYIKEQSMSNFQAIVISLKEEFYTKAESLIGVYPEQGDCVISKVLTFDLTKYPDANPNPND
Test: rotary-shadowing electron microscopy

B1: XSMC3 (natural protein)
chain: MYIKQVIIQGFRSYRDQTIVDPFSSKHNVIVGRNGSGKSNFFYAIQFVLSDEFSHLRPEQRLALLHEGTGPRVISAFVEIIFDNSDNRLPIDKEEVSLRRVIGAKKDQYFLDKKMVTKNDVMNLLESAGFSRSNPYYIVKQGKINQMATAPDSQRLKLLREVAGTRVYDERKEESISLMKETEGKRDKINELLKYIEERLHTLEEEKEELAQYQKWDKMRRALEYTIYNQELNETRAKLDELSSKRETSGEKSRQLRDAQQDARDKMEEIERQVRELKSKISAMKEEKEQLSSERQEQIKQRTKLELKTKDLQDELAGNSEQRKRLLKERQKLLEKIEEKQKELAETEPKFSSVKQKEESGIARLAQATQERTDLYAKQGRGSQFTSKEERDKWIKKELKSLDQAINDKKRQIAAINKDLEETEVNKEKNLEQYTKLDQDLNEVKTRVEELDKKYYEVKNKKDELQSERNYLWREENAEQQSLAAKREDLEKKQQLLRAATGKAILNGIDSINKVLEHFRRKGINQHVINGYHGIVMNNFDCEPAFYTCVEVTAGNRLFYHIVESDEVSTKILMEFNKMNLPGEVTFLPLNKLDVRDTAYPETNDAIPMISKLRYNLRFDKAFKHVFGKTLICRSMEVSTQLARAFTMDCITLEGDQVSHRGALTGGYYDTRKSRLELQKDVRKVEDELHALEAKLNENLRRNIERINNEIDQLMNQMQQIETQQRKFKASRDSILSEMKMLKEKRQQSEKTFMPKQRSLQSLEASLHAMESTRESLKAELGTDLLSQLSLEDQKRVDALNDEIRQLQQENRQLLNERIKLEGTITRVETYLNENLRKRLDQVEQELNELRETEGGTVLTATTSELEAINKRVKDTLARSEGLDITIDKTEVESKDLVKSMDRWKNMEKDHMDAINHDTKELEKMTNRQGMLLKKKEECMKKIRELGSLPQEAFEKYQTLSLKQLFRKLEQCNTELKKYSHVNKKALDQFVNFSEQKEKLIKRQEELDRGHKSIMELMNVLELRKYEAIQLTFKQVSKNFSEVFQKLVPGGKATLVMKKGDVEGSQSQDEGEGSTQSSVPSVDQFTGVGIRVSFTGKQAEMREMQQLSGGQKSLVALALIFAIQKCDPAPFYLFDEIDQALDAQHRKAVSDMIMELASHAQFITTTFRPELLESADKFYGVKFRNKVSHIDVITAEQAKDFVEDDTTHG
Q: Does B1 bind?
A: Result: binds
